Reference: patent US20150344583A1 (Amgen, published 2015)
Read-outs that look alike come from different tables or passages of the source.

T1: human BCMA (huBCMA) on cells (human, UniProt Q02223 1-184)
T1 chain: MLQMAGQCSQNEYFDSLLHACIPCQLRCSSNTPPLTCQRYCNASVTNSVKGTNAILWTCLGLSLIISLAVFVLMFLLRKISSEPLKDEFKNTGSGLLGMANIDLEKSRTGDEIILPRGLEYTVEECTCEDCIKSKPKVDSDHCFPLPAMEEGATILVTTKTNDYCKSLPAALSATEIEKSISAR

T2: rhuBCMA fusion protein (6xHis::Sumo::huBCMA(aa 5-51)::GGS::G3::Avi) (human)
T2 construct: the preparation also held C-terminally clipped forms; also called Sumo-BCMA; SumoBCMA
T2 chain: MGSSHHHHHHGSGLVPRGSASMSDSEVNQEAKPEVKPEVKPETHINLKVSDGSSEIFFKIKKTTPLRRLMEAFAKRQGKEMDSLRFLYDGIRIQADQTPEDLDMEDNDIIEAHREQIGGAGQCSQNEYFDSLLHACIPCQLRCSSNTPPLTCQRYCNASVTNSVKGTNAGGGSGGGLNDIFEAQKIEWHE

T3: rrat BCMA fusion protein (GS::6xHis::Sumo::ratBCMA(aa 2-49)::GGS::G3::Avi) (rat)
T3 chain: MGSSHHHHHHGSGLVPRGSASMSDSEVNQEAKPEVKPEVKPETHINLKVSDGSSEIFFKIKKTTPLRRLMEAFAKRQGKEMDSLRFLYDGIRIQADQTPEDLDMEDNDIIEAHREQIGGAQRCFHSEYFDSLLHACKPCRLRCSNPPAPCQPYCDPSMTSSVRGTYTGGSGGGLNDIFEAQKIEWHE

T4: TACI on transiently transfected cells (human, UniProt O14836 1-293)
T4 construct: whole, on cells; also called huTACI
T4 sequence (looked up): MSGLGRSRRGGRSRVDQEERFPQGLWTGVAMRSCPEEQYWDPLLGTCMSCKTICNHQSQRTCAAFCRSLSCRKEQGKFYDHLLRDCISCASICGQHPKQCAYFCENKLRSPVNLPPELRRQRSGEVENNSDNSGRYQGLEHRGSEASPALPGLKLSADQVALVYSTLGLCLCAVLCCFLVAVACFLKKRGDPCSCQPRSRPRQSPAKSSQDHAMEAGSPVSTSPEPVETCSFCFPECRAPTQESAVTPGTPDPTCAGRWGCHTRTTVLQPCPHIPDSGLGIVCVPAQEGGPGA


Columns and labels:
[1] = molecular target: T1, human BCMA (huBCMA) on cells; assay: cell-based or functional assay
[2] = molecular target: T2, rhuBCMA fusion protein …; assay: Biacore, antibody captured, rhu BCMA analyte
[3] = molecular target: T3, rrat BCMA fusion protein …; assay: Biacore, antibody captured, rrat BCMA analyte
[4] = molecular target: T5, cynomolgus (Macaca fascicularis) BCMA on cells (cynomolgus (Macaca fascicularis), UniProt Q02223 1-184 (human entry)); assay: CynoBCMA O/N FACS
T5 construct: also called cyno BCMA; cynomolgus BCMA

[5] = molecular target: T5, cynomolgus (Macaca fascicularis) BCMA …; assay: FACS, Cyno BCMA
[6] = molecular target: T4, TACI on transiently transfected cells; assay: FACS, hu TACI
[7] = molecular target: T1, human BCMA (huBCMA) on cells; assay: FACS, hu BCMA
[8] = molecular target: T2, rhuBCMA fusion protein …; assay: Biacore, antibody captured, rhu BCMA analyte
[9] = molecular target: T3, rrat BCMA fusion protein …; assay: Biacore, antibody captured, rrat BCMA analyte
[10] = molecular target: T1, human BCMA (huBCMA) on cells; assay: FACS, H929 cells
[11] = molecular target: T1, human BCMA (huBCMA) on cells; assay: cell-based or functional assay

T5 sequence (Q02223 other isoform, or with tags, fused parts or gaps): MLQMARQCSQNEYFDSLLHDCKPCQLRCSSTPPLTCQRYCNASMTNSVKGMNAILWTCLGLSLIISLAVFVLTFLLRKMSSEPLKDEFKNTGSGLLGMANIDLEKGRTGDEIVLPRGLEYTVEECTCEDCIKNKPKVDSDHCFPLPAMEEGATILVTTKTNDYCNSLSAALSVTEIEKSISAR

| Binder | MFI [4] [MFI] | MFI [5] [MFI] | MFI [6] [MFI] | MFI [7] [MFI] | other results |
| --- | --- | --- | --- | --- | --- |
| 29C12-MCC-DM1 (antibody, V domains shown) VH: EVQLLESGGALVQPGGSLRLSCAASGFTFSSYAMNWVRQAPGKGLEWVSAISVGGDTYYADSVKGRFTISRDNSKNTLYLQMNSLRAEDTAVYYCAKDQVTMVRGVWYYYGLDVWGQGTTVTVSS VL: DIVMIQSPLSLPVTPGEPASISCRSSQSLLHSNGNNYLDWYLQKPGQSPHLLISLGSNRTSGVPDRFSGSGSGTDFTLKISRVEAEDVGVYYCMQALQPPRRFGQGTKLEIKR |  |  |  |  | IC50, H929 cell growth (CellTiter-Glo, 96 h) [1]: 390 pM |
| Ab-2 (29C12_mut) (antibody, human IgG1, kappa, V domains shown, Human IgG1; also called 29C12 CV2; 29C12cv2) VH: EVQLLESGGGLVQPGGSLRLSCAASGFTFSSYAMNWVRQAPGKGLEWVSAISVGGDTYYADSVKGRFTISRDNSKNTLYLQMNSLRAEDTAVYYCAKDQVTMVRGVWYYYGLDVWGQGTTVTVSS VL: DIVMTQSPLSLPVTPGEPASISCRSSQSLLHSNGNNYLDWYLQKPGQSPHLLISLGSQRTSGVPDRFSGSGSGTDFTLKISRVEAEDVGVYYCMQALQPPRRFGQGTKLEIKR |  |  |  |  | Kd [2]: 1.11 nM; Kd [3]: 2.35 nM |
| 35D2 (antibody, V domains shown, IgG2 or IgG4, purified from hybridoma supernatant; also called 35D2.1; Ab-15) VH: EVQLLESGGALVQPGGSLRLSCAASGFTFSSYAMNWVRQAPGKGLEWVSAISVGGGTYYADSVKGRFTISRDNSKNTLYLHVNSLRAEDTAVYYCAKDQVTMVRGVWYYYGLDVWGQGTTVTVSS VL: VIVLIQSPLSLPVTPGEPASISCRSSQSLLHSNGNNYLDWYLQKPGQSPHLLISLGSNRTSGVPDRFSGSGSGTDFTLKISRVEAEDVGFYYCMQALQPPRRFGQGTKLEIKR | 152 | 198000 | 506 | 129000 |  |
| 32B5 (antibody, V domains shown, IgG2 or IgG4 as purified from hybridoma (32B5.1); later converted to human IgG1; an engineered version may be meant there; also called 32B5.1; Ab-10) VH: EVQLLESGGALVQPGGSLRLSCAASGFTFSSYAMNWVRQAPGKGLEWVSAISVGGDTYYADSVKGRFTISRDNSKNTLYLHVNSLSAEDSAVYYCAKDQVTLVRGVWYYYGLDVWGQGTTVTVSS VL: VIVLIQSPLSLPVTPGEPASISCRSSQSLLHSNGNNYLDWYLQKPGQSPHLLISLGSNRTSGVPDRFSGSGSGTDFTLKISRVEAEDVGFYYCMQALQPPRRFGQGTKLEIKR | 108 | 257000 | 274 | 137000 |  |
| 37B2 (antibody, V domains shown, IgG2 or IgG4, purified from hybridoma supernatant; also called 37B2.1; Ab-16) VH: EVQLLESGGALVQPGGSLRLSCAASGFTFSNYAMNWVRQAPGKGLEWVSAISVGGDTYYADSVKGRFTISRDNSKNTLYLHVNSLSAEDSAVYYCAKDQVTLVRGVWYYYGLDVWGQGTTVTVSS VL: VIVLIQSPLSLPVTPGEPASISCRSSQSLLHSNGNNYLDWYLQKPGQSPHLLISLGSNRTSGVPDRFSGSGSGTDFTLKISRVEAEDVGFYYCMQALQPPRRFGQGTKLEIKR | 104 | 136000 | 1040 | 83700 |  |
| 29C12 (antibody, V domains shown, IgG2 or IgG4 as purified from hybridoma (29C12.1); later converted to human IgG1; an engineered version may be meant there; also called 29C12.1; Ab-8) VH: EVQLLESGGALVQPGGSLRLSCAASGFTFSSYAMNWVRQAPGKGLEWVSAISVGGDTYYADSVKGRFTISRDNSKNTLYLQMNSLRAEDTAVYYCAKDQVTMVRGVWYYYGLDVWGQGTTVTVSS VL: DIVMIQSPLSLPVTPGEPASISCRSSQSLLHSNGNNYLDWYLQKPGQSPHLLISLGSNRTSGVPDRFSGSGSGTDFTLKISRVEAEDVGVYYCMQALQPPRRFGQGTKLEIKR | 110 | 97300 | 256 | 82600 |  |
| Ab-3 (32B5_mut) (antibody, human IgG1, kappa, V domains shown, Human IgG1; also called 32B5 CV2; 32B5cv2) VH: EVQLLESGGGLVQPGGSLRLSCAASGFTFSSYAMNWVRQAPGKGLEWVSAISVGGDTYYADSVKGRFTISRDNSKNTLYLQVNSLRAEDSAVYYCAKDQVTLVRGVWYYYGLDVWGQGTTVTVSS VL: DIVLTQSPLSLPVTPGEPASISCRSSQSLLHSNGNNYLDWYLQKPGQSPHLLISLGSQRTSGVPDRFSGSGSGTDFTLKISRVEAEDVGVYYCMQALQPPRRFGQGTKLEIKR |  |  |  |  | Kd [8]: 0.75 nM; Kd [9]: 2.07 nM |
| 2A1-PEG4-Mal-DM4 (antibody, V domains shown, PEG4-Mal-DM4 conjugated, sites not stated) VH: EVQLVESGGGLVKPGRSLRLSCTASGFTFGDYALSWFRQAPGKGLEWVGVSRSKAYGGTTDYAASVKGRFTISRDDSKSFAYLQMNSLKTEDTAVYYCCSSGYSSGWTPFDYWGQGTLVTVSS VL: not shown |  |  |  |  | IC50, CellTiter-Glo cell viability, H929 cells, 96 h [1]: 2.2 nM |
| 2A1-MCC-DM1 (antibody, V domains shown, MCC-DM1 conjugated, sites not stated) VH: EVQLVESGGGLVKPGRSLRLSCTASGFTFGDYALSWFRQAPGKGLEWVGVSRSKAYGGTTDYAASVKGRFTISRDDSKSFAYLQMNSLKTEDTAVYYCCSSGYSSGWTPFDYWGQGTLVTVSS VL: not shown |  |  |  |  | IC50 (nM DM1), cell viability, EW36 [1]: 30 nM DM1; IC50 (nM DM1), cell viability, H929 [1]: 0.6 nM DM1; IC50 (nM DM1), cell viability, MM1R [1]: 3.9 nM DM1; IC50 (nM DM1), cell viability, MM1S [1]: 1 nM DM1; IC50 (nM DM1), cell viability, RAMOS [1]: 32 nM DM1; IC50 (nM DM1), cell viability, U266 [1]: 0.8 nM DM1; IC50, CellTiter-Glo cell viability, H929 cells, 96 h [1]: 2.4 nM |
| 2A1-S108R (antibody, V domains shown) VH: EVQLVESGGGLVKPGRSLRLSCTASGFTFGDYALSWFRQAPGKGLEWVGVSRSKAYGGTTDYAASVKGRFTISRDDSKSFAYLQMNSLKTEDTAVYYCCRSGYSSGWTPFDYWGQGTLVTVSS VL: not shown |  |  |  |  | EC50 (read off the curve) [10]: ~200 ng/mL; ADCC EC50 [11]: 43 ng/mL |
| 2A1CV5-MCC-DM1 (Ab-1 ADC) (antibody, human IgG1, lambda, V domains shown, MCC-DM1 conjugated, sites not stated) VH: EVQLVESGGGLVKPGGSLRLSCAASGFTFGDYALSWFRQAPGKGLEWVGVSRSKAYGGTTDYAASVKGRFTISRDDSKSTAYLQMNSLKTEDTAVYYCASSGYSSGWTPFDYWGQGTLVTVSS VL: not shown |  |  |  |  | IC50 in an H929 tumor cell growth inhibition assay (antibody concentration) [1]: ~78 pM |
| 30E1 (antibody, V domains shown, IgG2 or IgG4, purified from hybridoma supernatant; also called 30E1.1; Ab-9) VH: EVQLLESGGGLVQPGGSLRLSCAASGFTFSSHAMSWVRQAPGKGLEWVSAISGGDGNTYYADSVKGRFAISRDNSKNVVYLQMNSLRAEDTAVYFCAKDLVGVVAGYYYYFGMDVWGQGTTVTVSS VL: not shown | 130 | 78500 | 555 | 109000 |  |
| 32H3 (antibody, V domains shown, IgG2 or IgG4, purified from hybridoma supernatant; also called 32H3.1; Ab-12) VH: EVQLLESGGGLVQPGGSLRLSCAASGFTFSSYAMSWVRQAPGKGLKWVSAISGGAGNTYYADSVKGRFTISRDISKSTVYLQMTSLRAEDTAIYYCAKDGVGTTGGYFYYHGMDVWGQGTTVTVSS VL: not shown | 122 | 51200 | 1360 | 97700 |  |
| 1E1-PEG4-Mal-DM4 (antibody, V domains shown) VH: QVQLVQSGAEVKKPGASVKVSCKASGYTFTGHYIHWVRQAPGQGLEWMGWIYPNSGGTNYAQKFQGRVTMTRDTSISTAYMELSRLRSDDSAVYYCAREGMVTGDYYYYRMDVWGQGTTVIVSS VL: QPVLTQPPSASASLGASVTLTCSLSSGYSNYKVDWYQQRPGKGPRFVMRVGIGGIVGSKGDGIPDRFSVLGSGLNRYLTIKNIQEEDESDFHCGADHGSGNNFVYVFGTGTKVTVLG |  |  |  |  | IC50, CellTiter-Glo cell viability, H929 cells, 96 h [1]: 0.68 nM |
| 1E1-MCC-DM1 (antibody, V domains shown) VH: QVQLVQSGAEVKKPGASVKVSCKASGYTFTGHYIHWVRQAPGQGLEWMGWIYPNSGGTNYAQKFQGRVTMTRDTSISTAYMELSRLRSDDSAVYYCAREGMVTGDYYYYRMDVWGQGTTVIVSS VL: QPVLTQPPSASASLGASVTLTCSLSSGYSNYKVDWYQQRPGKGPRFVMRVGIGGIVGSKGDGIPDRFSVLGSGLNRYLTIKNIQEEDESDFHCGADHGSGNNFVYVFGTGTKVTVLG |  |  |  |  | IC50, CellTiter-Glo cell viability, H929 cells, 96 h [1]: 0.63 nM |
